Biological target: T1, IL2/15Rβ and γc receptor subunits (UniProt P31785 23-369, limits assumed)
T1 sequence 1: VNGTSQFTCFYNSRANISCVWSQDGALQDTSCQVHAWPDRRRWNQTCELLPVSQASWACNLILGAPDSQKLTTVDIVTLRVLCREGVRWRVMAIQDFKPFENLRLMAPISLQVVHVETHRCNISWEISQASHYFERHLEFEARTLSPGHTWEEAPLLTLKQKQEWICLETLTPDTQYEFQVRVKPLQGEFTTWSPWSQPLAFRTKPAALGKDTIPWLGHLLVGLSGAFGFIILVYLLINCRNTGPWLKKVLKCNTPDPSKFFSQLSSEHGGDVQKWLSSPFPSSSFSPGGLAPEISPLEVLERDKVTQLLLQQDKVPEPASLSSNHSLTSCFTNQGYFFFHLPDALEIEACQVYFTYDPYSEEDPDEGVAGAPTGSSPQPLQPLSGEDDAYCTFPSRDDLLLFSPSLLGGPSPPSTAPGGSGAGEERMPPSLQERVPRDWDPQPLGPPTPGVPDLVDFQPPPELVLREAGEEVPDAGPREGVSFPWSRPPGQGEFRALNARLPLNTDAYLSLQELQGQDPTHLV
T1 sequence 2: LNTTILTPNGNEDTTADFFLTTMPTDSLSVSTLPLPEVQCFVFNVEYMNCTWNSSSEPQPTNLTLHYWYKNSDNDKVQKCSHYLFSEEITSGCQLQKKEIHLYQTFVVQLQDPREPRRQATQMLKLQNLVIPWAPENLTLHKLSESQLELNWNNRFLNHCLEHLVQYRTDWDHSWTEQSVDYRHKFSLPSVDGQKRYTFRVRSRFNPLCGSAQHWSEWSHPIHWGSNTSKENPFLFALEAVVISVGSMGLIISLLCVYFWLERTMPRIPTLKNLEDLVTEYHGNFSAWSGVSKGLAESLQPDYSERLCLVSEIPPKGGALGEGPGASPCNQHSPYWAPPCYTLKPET
Assay: cell-based or functional assay

B1: B15 Variant 1 (chimeric BLV1H12-IL-15 fusion antibody) (antibody, human IgG1, lambda, L234A L235A)
heavy: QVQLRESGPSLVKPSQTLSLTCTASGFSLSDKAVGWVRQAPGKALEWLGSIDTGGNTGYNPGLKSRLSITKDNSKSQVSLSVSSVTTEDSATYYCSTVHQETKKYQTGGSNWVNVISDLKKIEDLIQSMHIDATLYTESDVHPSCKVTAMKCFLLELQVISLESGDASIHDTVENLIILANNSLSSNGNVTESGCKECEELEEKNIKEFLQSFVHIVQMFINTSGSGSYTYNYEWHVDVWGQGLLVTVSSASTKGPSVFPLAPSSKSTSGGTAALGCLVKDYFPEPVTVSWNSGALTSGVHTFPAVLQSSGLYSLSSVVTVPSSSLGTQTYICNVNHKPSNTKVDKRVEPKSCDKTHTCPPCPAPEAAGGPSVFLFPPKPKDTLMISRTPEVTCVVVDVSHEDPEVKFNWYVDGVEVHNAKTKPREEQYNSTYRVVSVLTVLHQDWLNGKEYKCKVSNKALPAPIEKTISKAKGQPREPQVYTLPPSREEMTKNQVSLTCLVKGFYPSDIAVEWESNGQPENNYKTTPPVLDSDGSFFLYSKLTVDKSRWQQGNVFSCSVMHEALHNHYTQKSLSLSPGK
light: QAVLNQPSSVSGSLGQKVTISCSGSSSNIGNNYVSWYQQLPGTAPKLLIYGDTKRPSGIPDRFSGSKSGTSATLGITGLQTGDEADYYCASAEDSSSNAVFGSGTTLTVLGQPKAAPSVTLFPPSSEELQANKATLVCLISDFYPGAVTVAWKADSSPVKAGVETTTPSKQSNNKYAASSYLSLTPEQWKSHRSYSCQVTHEGSTVEKTVAPTECS
EC50 (nM), STAT5 inducible SEAP reporter in HEK-Blue IL2 reporter cells: 0.032 nM

B2: B15 Variant 3 (chimeric BLV1H12-IL-15 fusion antibody) (antibody, human IgG1, lambda, L234A L235A)
heavy: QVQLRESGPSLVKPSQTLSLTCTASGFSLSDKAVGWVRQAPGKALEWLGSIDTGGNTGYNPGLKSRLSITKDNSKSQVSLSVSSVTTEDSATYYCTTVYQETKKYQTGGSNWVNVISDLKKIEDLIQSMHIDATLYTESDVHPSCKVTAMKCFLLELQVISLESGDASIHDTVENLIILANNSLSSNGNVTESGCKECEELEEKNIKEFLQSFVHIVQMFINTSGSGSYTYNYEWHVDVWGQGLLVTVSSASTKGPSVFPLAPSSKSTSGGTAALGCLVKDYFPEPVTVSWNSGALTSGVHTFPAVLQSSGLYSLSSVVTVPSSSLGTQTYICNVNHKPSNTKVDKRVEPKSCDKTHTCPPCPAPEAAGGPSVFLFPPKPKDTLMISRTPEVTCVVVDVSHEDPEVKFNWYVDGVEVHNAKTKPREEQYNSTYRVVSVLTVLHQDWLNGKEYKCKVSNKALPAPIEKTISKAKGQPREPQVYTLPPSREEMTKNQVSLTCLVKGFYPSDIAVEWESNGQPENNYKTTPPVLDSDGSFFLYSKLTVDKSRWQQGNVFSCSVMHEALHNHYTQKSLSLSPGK
light: B1 light
EC50 (nM), STAT5 inducible SEAP reporter in HEK-Blue IL2 reporter cells: 0.026 nM
